For assay [1], the target named is T1, APMA-activated recombinant human MMP-2 (human, UniProt P08253 110-660, limits assumed).
T1 sequence (looked up): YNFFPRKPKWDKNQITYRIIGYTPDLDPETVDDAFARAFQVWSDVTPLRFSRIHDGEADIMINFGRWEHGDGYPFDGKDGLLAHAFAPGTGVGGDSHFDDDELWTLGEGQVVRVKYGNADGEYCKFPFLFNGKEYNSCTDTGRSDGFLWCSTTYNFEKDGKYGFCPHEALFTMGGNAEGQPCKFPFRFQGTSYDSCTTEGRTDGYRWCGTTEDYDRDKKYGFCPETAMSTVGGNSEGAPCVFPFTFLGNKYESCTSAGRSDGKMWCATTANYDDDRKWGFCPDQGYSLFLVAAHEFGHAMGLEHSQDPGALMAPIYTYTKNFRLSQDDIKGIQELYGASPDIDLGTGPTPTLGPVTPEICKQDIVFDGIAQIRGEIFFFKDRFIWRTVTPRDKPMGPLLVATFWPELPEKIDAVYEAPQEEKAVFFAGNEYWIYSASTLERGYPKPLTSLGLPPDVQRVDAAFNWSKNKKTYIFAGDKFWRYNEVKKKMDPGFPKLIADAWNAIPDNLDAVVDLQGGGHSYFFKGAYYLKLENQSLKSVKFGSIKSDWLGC
As to the kind of experiment: cell-based or functional assay.

Assay [2] addresses T2, ανβ3 integrin receptor on U87MG human glioma cells (human, UniProt P06756 31-1048; P05106 27-788).
T2 construct: whole, on cells; Endogenous receptor on U87MG cells; also called ανβ3 receptor
Briefly: competitive cell-binding assay on U87MG cells, displacement of 125I-echistatin.
Procedure: Briefly, the U87MG cell line was cultured in DMEM medium containing 10% (v/v) fetal bovine serum supplemented with penicillin (100 μg/ml), streptomycin (100 μg/ml), non-essential amino acids (100 mM) and sodium pyruvate (1 mM) at 37° C. with 5% CO₂. […] After incubation, the plate was washed three times with PBS containing 0.1% BSA, and the radioactivity was measured by γ-counting. The IC₅₀ values were calculated by nonlinear regression analysis.

The record followed here is patent publication US20140249468A1 (UNITED STATES OF AMERICA AS REPRESENTED BY THE SECRETARY …, published 2014).

Square brackets hold non-standard residues; d marks the D form. Ends that are not written are not given here. A value given as a limit tells only on which side of the number the result lay.

T2 sequence (P06756 31-1048, chain 1 of 2): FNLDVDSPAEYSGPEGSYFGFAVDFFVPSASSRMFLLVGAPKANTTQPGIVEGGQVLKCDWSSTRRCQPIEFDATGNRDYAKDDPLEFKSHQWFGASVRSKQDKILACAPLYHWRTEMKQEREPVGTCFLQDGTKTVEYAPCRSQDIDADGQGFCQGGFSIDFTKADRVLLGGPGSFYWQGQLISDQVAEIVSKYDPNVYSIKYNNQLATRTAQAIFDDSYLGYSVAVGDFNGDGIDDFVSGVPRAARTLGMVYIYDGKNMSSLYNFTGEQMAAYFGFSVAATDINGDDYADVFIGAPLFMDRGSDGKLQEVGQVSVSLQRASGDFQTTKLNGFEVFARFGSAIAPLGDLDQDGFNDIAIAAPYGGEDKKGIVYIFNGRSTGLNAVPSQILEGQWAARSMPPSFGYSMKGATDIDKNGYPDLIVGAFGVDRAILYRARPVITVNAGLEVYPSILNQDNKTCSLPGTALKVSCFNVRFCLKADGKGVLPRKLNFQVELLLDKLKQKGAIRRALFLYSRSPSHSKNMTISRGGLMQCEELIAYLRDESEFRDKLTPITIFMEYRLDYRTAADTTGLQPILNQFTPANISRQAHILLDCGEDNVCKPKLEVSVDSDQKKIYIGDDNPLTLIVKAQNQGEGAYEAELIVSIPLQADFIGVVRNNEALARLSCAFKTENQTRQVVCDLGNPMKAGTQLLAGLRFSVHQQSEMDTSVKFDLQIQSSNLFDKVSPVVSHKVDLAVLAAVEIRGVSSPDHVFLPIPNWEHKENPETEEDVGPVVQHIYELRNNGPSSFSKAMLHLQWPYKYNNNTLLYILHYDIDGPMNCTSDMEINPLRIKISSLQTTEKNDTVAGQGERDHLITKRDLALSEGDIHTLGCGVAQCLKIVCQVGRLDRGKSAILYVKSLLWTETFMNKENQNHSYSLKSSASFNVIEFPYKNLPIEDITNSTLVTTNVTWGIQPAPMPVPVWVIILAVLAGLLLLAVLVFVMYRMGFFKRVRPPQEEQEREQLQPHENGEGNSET
T2 sequence (P05106 27-788, chain 2 of 2): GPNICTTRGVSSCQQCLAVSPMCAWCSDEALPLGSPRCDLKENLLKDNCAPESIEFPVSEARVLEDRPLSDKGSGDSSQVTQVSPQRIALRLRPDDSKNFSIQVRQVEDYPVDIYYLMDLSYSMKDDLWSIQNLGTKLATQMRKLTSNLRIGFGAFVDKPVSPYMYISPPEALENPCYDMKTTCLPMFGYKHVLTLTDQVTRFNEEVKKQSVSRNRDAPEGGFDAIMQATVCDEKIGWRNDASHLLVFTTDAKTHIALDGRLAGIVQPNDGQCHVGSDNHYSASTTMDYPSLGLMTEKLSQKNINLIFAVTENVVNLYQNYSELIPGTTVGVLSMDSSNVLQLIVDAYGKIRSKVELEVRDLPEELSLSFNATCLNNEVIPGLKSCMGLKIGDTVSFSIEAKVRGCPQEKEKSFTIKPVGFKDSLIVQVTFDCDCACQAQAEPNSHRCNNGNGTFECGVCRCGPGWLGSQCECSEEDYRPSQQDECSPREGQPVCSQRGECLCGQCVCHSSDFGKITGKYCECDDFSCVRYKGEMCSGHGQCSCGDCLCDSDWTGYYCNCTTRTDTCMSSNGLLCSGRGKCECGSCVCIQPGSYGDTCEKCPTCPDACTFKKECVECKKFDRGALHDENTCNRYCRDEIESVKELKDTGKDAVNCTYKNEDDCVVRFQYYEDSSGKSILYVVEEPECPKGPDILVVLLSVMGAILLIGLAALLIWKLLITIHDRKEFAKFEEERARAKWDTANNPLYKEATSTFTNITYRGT

B1: compound 4 (MMP-P-RGD) (peptide)
peptide 1: {Cy5.5}-GPLGVRGK(BHQ‑3)GG
peptide 2: RGDYK
modifications: not fully specified (some residues); also: chain 1 C-terminal carboxyl conjugated to chain 2, c(RGDyK), linkage site not given here, head-to-tail to a chain's N/C-terminus
Turning to B1, the “recovery of the NIR fluorescence signal” value in assay [1] is more than 20 fold.

B2: compound 7 (peptide)
peptide: cyclo(RGD[dY]K(CW800))
notes: Made by conjugating CW800 NHS ester to c(RGDyK); also called CW800-labelled c(RGDyK)
B2 displayed an IC50 in assay [2] of 456 nM.
